Reference: patent US20240294638A1 (LES LABORATOIRES SERVIER, published 2024)
Where a chain is given by its changes, count along the chain named. In names and notes the source's numbering stands.

Experiments:
CD94 homodimer = biological target: T1, CD94 homodimer (human, UniProt Q13241 32-179, limits assumed); assay: SPR
T1 sequence (looked up): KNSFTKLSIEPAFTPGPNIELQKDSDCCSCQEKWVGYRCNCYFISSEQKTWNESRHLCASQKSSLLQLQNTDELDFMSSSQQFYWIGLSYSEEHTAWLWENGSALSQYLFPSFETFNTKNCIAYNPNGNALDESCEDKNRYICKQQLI
Procedure: (§1) Kinetic binding analysis of anti-NKG2A monoclonal antibodies (mAbs) was performed by Surface Plasmon Resonance (SPR) using a Continuous Flow Microspotter (CFM, Wasatch Microfluidics, Salt Lake City, US) combined with an IBIS MX96 SPR instrument (IBIS Technologies, The Netherlands). The extracellular domains (ECDs) of human his-tagged NKG2A, NKG2C and FLAG-tagged CD94 were co-expressed using an Expi293™ expression system and purified by standard Ni-NTA chromatography followed by anti-Flag M2 affinity gel (A2220, Sigma). Binding kinetics were measured by capturing mAbs on a G-a-hu-IgG Fc SensEye® for 15 minutes using the CFM. After spotting, the SensEye® was positioned in the IBIS MX96 biosensor and immobilized mAbs were fixed by SensEye FixIt kit. Kinetic analysis was performed by applying a kinetic titration series injecting increasing concentrations of antigens from 1.6 nM to 400 nM as 2-fold dilutions. After each cycle of antigen injection, the surface was regenerated by 100 mM H₃PO₄, pH 3. Antigen association and dissociation were measured for 15 minutes. The recorded binding responses were fitted to a simple 1:1 binding model with Scrubber 2.0 software for calculation of the on-rate (kₒₙ or kₐ), off-rate (Koff or kd) and affinity (KD) constants. Binding kinetic parameters were measured as an average of three independent measuring points.
The binding affinities and kinetic parameters of the anti-NKG2A mAbs binding to NKG2A/CD94 and NKG2C/CD94 heterodimers are shown in Table 7. […] None of the mAbs bound to CD94 homodimer (data not shown).

[1] = biological target: T2, human NKG2C and human CD94 expressed on transiently transfected CHO-S cells (human, UniProt P26717 1-231; Q13241 1-179); assay: flow cytometry, transiently transfected CHO-S cells, AF647 goat anti-human IgG secondary (MFI) [panel 23686]
T2 construct: whole, on cells
Procedure: (§2) CHO-S cells were transiently transfected with human NKG2A and human CD94, human NKG2C and human CD94, cynomolgus NKG2A and cynomolgus CD94 or cynomolgus NKG2C and cynomolgus CD94 constructs. Mock transfected CHO-S cells were included in the assay as a negative control. Antibodies were tested for binding to the transfected cells in 3-fold dilutions from 30 μg/mL down to 0.5 ng/ml antibody, and 0 μg/mL antibody, and incubated for 30 min at 4° C. Following a washing step, the cells were incubated with a fluorescent goat anti-human IgG (H+L) secondary antibody (A-21445, Invitrogen) for 30 min at 4° C. in the dark. After a second wash, the cells were tested by high throughput flow cytometry (IQue screener, Sartorius). Data were transferred to Excel and graphs were generated using GraphPad Prism® software.

[2] = biological target: T3, cynomolgus NKG2A and cynomolgus CD94 expressed on transiently transfected CHO-S cells (cynomolgus, UniProt Q68VD2 1-233; Q68VD4 1-179); assay: as above
T3 construct: whole, on cells
Procedure: as §2

[3] = biological target: T4, human NKG2A and human CD94 expressed on transiently transfected CHO-S cells (human, UniProt Q13241 1-179); assay: as above
T4 construct: whole, on cells; also called human NKG2A/CD94 heterodimer
Procedure: as §2

[4] = biological target: T5, cynomolgus NKG2C and cynomolgus CD94 expressed on transiently transfected CHO-S cells (cynomolgus); assay: as above
T5 construct: whole, on cells
Procedure: as §2

[5] = biological target: T5, cynomolgus NKG2C and cynomolgus CD94 …; assay: blocking of PE-conjugated HLA-E pentamer binding to transiently transfected CHO-S cells, flow cytometry (percentage binding) [cont.), panel D cNKG2C]
Procedure: (§3) CHO-S cells were transiently transfected with constructs for expression of human NKG2A and human CD94, human NKG2C and human CD94, cynomolgus NKG2A and cynomolgus CD94, or cynomolgus NKG2C and cynomolgus CD94. Mock transfected CHO-S cells were included in the assay as negative control. A PE-conjugated HLA-E pentamer was tested for binding to the heterodimers in the presence of anti-human NKG2A antibodies in 3-fold serial dilutions from 10 μg/mL down to 14 ng/mL antibody, and 0 μg/mL antibody. The antibodies were allowed to bind for 30 min at 4° C. prior to the addition of the HLA-E pentamer in a 1:50 dilution. The fluorescence intensity of HLA-E binding to the transfected cells was measured by high throughput flow cytometry (IQue screener, Sartorius). Data were transferred to Excel and graphs were generated using GraphPad Prism® software.

[6] = biological target: T2, human NKG2C and human CD94 expressed on …; assay: flow cytometry, CHO-S cells transiently transfected with NKG2A variant and CD94, AF647 goat anti-human IgG secondary (MFI) [panel 23686]
Procedure: (§4) Six anti-human NKG2A antibodies were tested for binding to the different heterodimers expressed. Antibodies were tested for binding to the transfected cells in 3-fold serial dilutions from 1 μg/mL antibody, and 0 μg/ml antibody, and incubated for 30 min at 4° C. Following a washing step, the cells were incubated with a fluorescent goat anti-human IgG (H+L) secondary antibody (A-21445, Invitrogen) for 30 min at 4° C. in the dark. After a second wash, the cells were tested by high throughput flow cytometry (IQue screener, Sartorius). Data were transferred to Excel and graphs were generated using GraphPad Prism® software. A reference antibody analogue and an isotype control were included for comparison.

[7] = biological target: T4, human NKG2A and human CD94 expressed on …; assay: as above
Procedure: as §4

I225M [8] = biological target: T6, I225M (Homo sapiens); assay: as above
T6 construct: co-expressed on CHO-S cells; also called human NKG2A I225M / human CD94 heterodimer on CHO-S cells
Procedure: as §4

[9] = biological target: T2, human NKG2C and human CD94 expressed on …; assay: blocking of PE-conjugated HLA-E pentamer binding to transiently transfected CHO-S cells, flow cytometry (percentage binding) [cont.), panel C hNKG2C]
Procedure: as §3

[10] = biological target: T7, recombinant human NKG2C/CD94 heterodimer (extracellular domains) (human, UniProt P26717 94-231; Q13241 32-179); assay: SPR (IBIS MX96), mAb captured on anti-human IgG Fc, ECD heterodimer injected, 1:1 fit
T7 construct: extracellular domain; also called HuNKG2C/huCD94; NKG2C/CD94 ECDs
Procedure: as §1

[11] = biological target: T8, recombinant human NKG2A/CD94 heterodimer (extracellular domains) (human, UniProt Q13241 32-179); assay: as above
T8 construct: extracellular domain; ECDs co-expressed in Expi293, purified by Ni-NTA and anti-Flag; also called HuNKG2A/huCD94; NKG2A/CD94 ECDs
Procedure: as §1

[12] = biological target: T3, cynomolgus NKG2A and cynomolgus CD94 …; assay: blocking of PE-conjugated HLA-E pentamer binding to transiently transfected CHO-S cells, flow cytometry (percentage binding) [panel B cNKG2A]
Procedure: as §3

[13] = biological target: T4, human NKG2A and human CD94 expressed on …; assay: flow cytometry, CHO-S cells transiently transfected with NKG2A variant and CD94, AF647 goat anti-human IgG secondary (MFI) [cont.), panel 23925]
Procedure: as §4

I225M [14] = biological target: T6, I225M; assay: as above
Procedure: as §4

[15] = biological target: T4, human NKG2A and human CD94 expressed on …; assay: flow cytometry, transiently transfected CHO-S cells, AF647 goat anti-human IgG secondary (MFI) [cont.), panel 23925]
Procedure: as §2

[16] = biological target: T4, human NKG2A and human CD94 expressed on …; assay: flow cytometry, CHO-S cells transiently transfected with NKG2A variant and CD94, AF647 goat anti-human IgG secondary (MFI) [panel 23566]
Procedure: as §4

[17] = biological target: T3, cynomolgus NKG2A and cynomolgus CD94 …; assay: flow cytometry, transiently transfected CHO-S cells, AF647 goat anti-human IgG secondary (MFI) [panel 23566]
Procedure: as §2

[18] = biological target: T4, human NKG2A and human CD94 expressed on …; assay: as above
Procedure: as §2

T2 sequence (P26717 whole entry, one chain of several): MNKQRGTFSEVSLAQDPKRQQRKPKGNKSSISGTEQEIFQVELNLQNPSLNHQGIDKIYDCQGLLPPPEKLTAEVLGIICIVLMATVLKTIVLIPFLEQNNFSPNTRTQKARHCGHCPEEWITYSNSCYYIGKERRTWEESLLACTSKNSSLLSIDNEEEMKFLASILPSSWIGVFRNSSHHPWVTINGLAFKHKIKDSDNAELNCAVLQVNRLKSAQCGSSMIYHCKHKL
T8 sequence (chain, as listed by the source, chain 1 of 2, one chain of several): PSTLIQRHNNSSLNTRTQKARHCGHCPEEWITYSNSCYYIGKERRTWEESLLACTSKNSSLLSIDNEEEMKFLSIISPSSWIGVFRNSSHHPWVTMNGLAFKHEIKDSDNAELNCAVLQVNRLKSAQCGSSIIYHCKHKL
T7 sequence (P26717 94-231, chain 1 of 2, one chain of several): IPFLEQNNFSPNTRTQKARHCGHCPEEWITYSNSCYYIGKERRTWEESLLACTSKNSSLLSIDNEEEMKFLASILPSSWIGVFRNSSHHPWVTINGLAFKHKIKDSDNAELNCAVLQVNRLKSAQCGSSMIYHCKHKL
T6 sequence (P26715 whole entry I225M): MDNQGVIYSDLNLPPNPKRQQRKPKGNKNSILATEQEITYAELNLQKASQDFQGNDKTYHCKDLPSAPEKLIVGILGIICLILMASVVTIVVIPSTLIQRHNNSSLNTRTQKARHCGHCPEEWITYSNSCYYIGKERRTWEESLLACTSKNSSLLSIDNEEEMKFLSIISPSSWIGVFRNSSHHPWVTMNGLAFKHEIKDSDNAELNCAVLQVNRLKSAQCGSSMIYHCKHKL

B1: antibody 23686 (antibody, human IgG1, kappa, L234A L235A, V domains shown)
VH: EVQLVESGGGLVKPGGSLRLSCAASGFTFSSYSMNWVRQAPGKGLEWVSSISSSSSYIYYADSVKGRFTISRDNAKNSLYLQMNSLRAEDTAVYYCARDEWGLLGFDSWGQGTLVTVSS
VL: EIVLTQSPATLSLSPGERATLSCRASQSISNYLAWYQQKPGQAPRLLIYDASNRATGIPARFSGSGSGTDFTLTISSLEPEDFAVYYCQQRTDWPPWTFGQGTKVEIKR
notes: Fully human IgG1-LALA (L234A/L235A), kappa
binding result (CD94 homodimer): no binding
EC50 (read off the curve) [1]: ~0.01 mg/L
EC50 (read off the curve) [2]: ~0.02 mg/L
EC50 (read off the curve) [3]: ~0.03 mg/L
EC50 (read off the curve) [4]: ~0.02 mg/L
IC50 (read off the curve) [5]: ~0.7 mg/L
EC50 (read off the curve) [6]: ~0.003 mg/L
EC50 (read off the curve) [7]: ~0.005 mg/L
EC50 (read off the curve) (I225M [8]): ~0.007 mg/L
IC50 (read off the curve) [9]: ~0.2 mg/L
Kd [10]: 3.9 nM
koff [10]: 0.0026 s⁻¹
kon [10]: 670000 M⁻¹ s⁻¹
Kd [11]: 0.72 nM
koff [11]: 0.00014 s⁻¹
kon [11]: 200000 M⁻¹ s⁻¹
IC50 (read off the curve) [12]: ~0.3 mg/L

B2: antibody 23925 (antibody, human IgG1, kappa, L234A L235A, V domains shown)
VH: EVQLVESGGGLVQPGGSLRLSCAASGFTFSSYAMNWVRQAPGKGLEWVSTISNSGGTTYYADSVKGRFTISRDNSKDTLYLQMNSLRAEDTAVYYCAKAHYYARGYFDYWGQGTLVTVSS
VL: DIQMTQSPSSVSASVGDRVTITCRASQGISSWLAWYQQKSGKAPKLLIYAASSLQIGVPSRFSGSGSGTDFTLTISSLQPEDFATYYCQQANSFPYTFGQGTKLEIKR
notes: as for B1
binding result (CD94 homodimer): no binding
EC50 (read off the curve) [13]: ~0.004 mg/L
EC50 (read off the curve) (I225M [14]): ~0.003 mg/L
EC50 (read off the curve) [15]: ~0.02 mg/L
Kd [10]: 68 nM
koff [10]: 0.0006 s⁻¹
kon [10]: 8800 M⁻¹ s⁻¹
Kd [11]: 2.23 nM
koff [11]: 0.00042 s⁻¹
kon [11]: 190000 M⁻¹ s⁻¹
binding result [12]: no binding (tested: 10000 ng/ml)

B3: antibody 23566 (antibody, human IgG1, kappa, L234A L235A, V domains shown)
VH: B2 VH with V5L, G10D, S30D, S31N, N35H, S52T, I70L, D77N, Y109F
VL: B2 VL with S7T, S40P, I56S
notes: Fully human IgG1-LALA (L234A/L235A), kappa; also called mAb 23566
binding result (CD94 homodimer): no binding
EC50 (read off the curve) [16]: ~0.005 mg/L
binding result [17]: no binding (tested: about 3300 ng/ml)
EC50 (read off the curve) [18]: ~0.02 mg/L
Kd [10]: 98 nM
koff [10]: 0.00083 s⁻¹
kon [10]: 8500 M⁻¹ s⁻¹
Kd [11]: 2.5 nM
koff [11]: 0.0011 s⁻¹
kon [11]: 420000 M⁻¹ s⁻¹
